One may read the Kd as the free concentration of one partner at which half of the binding sites on the other are occupied at equilibrium, for simple one-to-one binding. Low readings indicate tighter binding, high ones weaker binding.

One assay deals with Lpg2149 (aa 9–119) (Legionella pneumophila, UniProt Q5ZTL2 9-119). The assay is described as follows: crystal structure. The conditions noted are these: both partners purified.
Another assay deals with Lpg2149, wild type (Legionella pneumophila, UniProt Q5ZTL2 1-119). Briefly: ITC. The conditions noted are these: both partners purified.

B1: MvcA (aa 1–400) (enzyme)
chain: MIVRGINMTKIKLESPGFMVHKKLKSMSQSYGVMMTGVPAEVLGQMQAERSIPSINKTGNLKQQIAKEVSKVCHMMTEPTQSCGQASNDVCELLLGKIEAEKFHFTKYEALSADGDNLKNVLENTAPSSTNLLIRFEIDREDPPIVLVKTKNENFNPETAVKNKIYLLENKLYFIDKMGNLFNLGPGKKKCTQLFNAIGDSAEYSLCDPFVLEEPEKPEDFAISEIVDIFNEQKERFDFWIGSHSFTIYIPQTLGESPRQFYPYQAYFGSHTLQDWFVSDKDEYLSRIGIDKYIEKLAVLGKTTNTKERSDIYAEFFSKRGREAFFCAHLNEKRQPLRVKFKITEINPELALKNLQETQEFIDTHPGENPSDKVENYRNRAKLAMTEHLESLLDIKPESS
On to B1, for which the binding result with Lpg2149 (aa 9–119) was “binds”.

B2: MvcA, wild type (enzyme)
chain: MIVRGINMTKIKLESPGFMVHKKLKSMSQSYGVMMTGVPAEVLGQMQAERSIPSINKTGNLKQQIAKEVSKVCHMMTEPTQSCGQASNDVCELLLGKIEAEKFHFTKYEALSADGDNLKNVLENTAPSSTNLLIRFEIDREDPPIVLVKTKNENFNPETAVKNKIYLLENKLYFIDKMGNLFNLGPGKKKCTQLFNAIGDSAEYSLCDPFVLEEPEKPEDFAISEIVDIFNEQKERFDFWIGSHSFTIYIPQTLGESPRQFYPYQAYFGSHTLQDWFVSDKDEYLSRIGIDKYIEKLAVLGKTTNTKERSDIYAEFFSKRGREAFFCAHLNEKRQPLRVKFKITEINPELALKNLQETQEFIDTHPGENPSDKVENYRNRAKLAMTEHLESLLDIKPESSPSLFWKNVDKKEQEMTDSSRYKKGPS
The molecule B2 had a Kd in the assay with Lpg2149, wild type of about 28.1 nM.

The record behind these values is PMC7265302 (Nature Communications, 2020).
